Test: UDP luminescence plate assay of E. coli extracts, mutants within SEQ ID No: 17, 2 mM metribuzin
Format: biochemical, Zea mays
Conditions: for metribuzin signal relative to the SEQ ID No:17 control (first parentheses) / ratio of metribuzin to DMSO signal (second parentheses) / SIGNAL: metribuzin signal of mutant divided by the signal of the SEQ ID No. 17 control / luminescence signal observed with 2 mM metribuzin: 2 mM metribuzin; for metribuzin signal relative to the SEQ ID No:17 control (first parentheses) / ratio of metribuzin to DMSO signal (second parentheses): additional mutation in SEQ ID No: 17; for SIGNAL: metribuzin signal of mutant divided by the signal of the SEQ ID No. 17 control: relative to SEQ ID No: 17 control; for luminescence signal in the DMSO control / luminescence signal observed with 2 mM metribuzin: additional mutations within SEQ ID No: 17; for luminescence signal in the DMSO control: DMSO in place of metribuzin; for luminescence signal observed with 2 mM metribuzin: control = SEQ ID No: 17
Protocol: Activities observed with metribuzin were generally lower in magnitude than seen with herbicide V in the previous examples. For example, in one plate assay run with 2 mM metribuzin using 5 ul of diluted extract of plate-grown BL21DE3 cells expressing w/t bx9 and assayed for 40 minutes (as described in Example 2) the UDP-Glo luminescence signal was ˜3.4 E6 as compared with ˜2.3E6 in the DMSO control and ˜1.7E6 in the H24A null mutant control. […] It was therefore important to assess potential improvements in the metribuzin activity of the various mutants relative to the wild type bx9 enzyme based not only on the H24A null activity control but also based upon controls with DMSO in place of metribuzin acceptor substrate. In some plate assays (using more dilute extracts) the metribuzin signals from the w/t enzyme was the same or barely greater than the DMSO control. Additionally, some mutations gave an increase in the ‘background’ UDP-glucose hydrolysis activity with just DMSO present that was the same or similar to the magnitude of the increase in signal seen with metribuzin. In these instances it is therefore uncertain from just this UDP-Glo assay method whether the specific metribuzin signal (glucosylation of metribuzin) is improved or not i.e. the signal seen with metribuzin may or may not all or to a large part be attributable to increased background hydrolysis). […] Thus the ratio of the metribuzin to DMSO signal as well as the increase in signal relative to the w/t bx9 is used to help distinguish those mutations most likely to offer the highest activity to metribuzin. A follow up assay monitored by, for example, LC MS is one method to distinguish these cases more quantitatively. The tables below summarise the results from two different sets of luminescence plate assays to detect single mutations giving improvements in the magnitude of the signal with metribuzin relative to w/t bx9 and/or the apparent specificity for metribuzin as measured by the deviation of the ratio of metribuzin to DMSO control activity from the bx9 w/t value of around unity.
A further separate screen was carried out to explore a library of additional mutations at various positions within the context of SEQ ID No: 17 for improved metribuzin activity. These were assayed, assessed and scored as above. […] These were S75K (2.5)(1.25), A236G (4.0)(1.15), A433V (3.3)(9.0) and R449C (1.8)(1.2).
A yet further and more comprehensive screen was carried out to explore saturation mutagenesis at all remaining amino acid positions within the context of SEQ ID No:17 for improved metribuzin activity. Again these were assayed, assessed and scored as above and the results of (out of the thousands screened) of the subset that were of interest are summarized in Table 16.

B1: G418Y: additional mutation in SEQ ID No: 17 (protein)
chain: MASSRTGAGAGGRVVVFPFPFQGHFNPVMRLARALHARGLAITVFHSGALDPADYPADYRFVPVTVEADPKLLASEDIAAIVTTLNASCDAPFRARLSALLAAEGRDSVRCVFTDVVWNAVLTASSDLGVPALGMMTASAASLRDYMAYRTLIDKGYLPVKEERKEDPVPELPPYLVKDLLRVDTSDLEEFAELLARTVTAARRASGLIFNTFPLIETDTLAEIHKALSVPVFAVAPLNKLVPTATASLHGVVQADRGCLQWLDTQQPGSVLYVSFGSFAAMDPHEFVELAWGLADSKRPFVWVVRPNLIRGFESGALPDGVEDEVRGRGIVVKWAPQEEVLAHPAVGGFLTHNGWNSTVEAISEGVPMVCCPRHGDQFGNMRYVCDVWKVGTELVGEQLERGQVKAAIDRLFGTKEYEEIKERMKEFKIAAAKGIGIGVDVDETASPRTDLTDLVDLIKSF
modifications: Mutated Zea mays Bx9 protein sequence
- metribuzin signal relative to the SEQ ID No:17 control (first parentheses): 3.1
- ratio of metribuzin to DMSO signal (second parentheses): 1.47
- SIGNAL: metribuzin signal of mutant divided by the signal of the SEQ ID No. 17 control: 3.11
- luminescence signal in the DMSO control: 3.86E+06
- luminescence signal observed with 2 mM metribuzin: 5.67E+06

B2: M425F: additional mutation in SEQ ID No: 17 (protein)
chain: MASSRTGAGAGGRVVVFPFPFQGHFNPVMRLARALHARGLAITVFHSGALDPADYPADYRFVPVTVEADPKLLASEDIAAIVTTLNASCDAPFRARLSALLAAEGRDSVRCVFTDVVWNAVLTASSDLGVPALGMMTASAASLRDYMAYRTLIDKGYLPVKEERKEDPVPELPPYLVKDLLRVDTSDLEEFAELLARTVTAARRASGLIFNTFPLIETDTLAEIHKALSVPVFAVAPLNKLVPTATASLHGVVQADRGCLQWLDTQQPGSVLYVSFGSFAAMDPHEFVELAWGLADSKRPFVWVVRPNLIRGFESGALPDGVEDEVRGRGIVVKWAPQEEVLAHPAVGGFLTHNGWNSTVEAISEGVPMVCCPRHGDQFGNMRYVCDVWKVGTELVGEQLERGQVKAAIDRLFGTKEGEEIKERFKEFKIAAAKGIGIGVDVDETASPRTDLTDLVDLIKSF
modifications: Mutated Zea mays Bx9 protein sequence
- metribuzin signal relative to the SEQ ID No:17 control (first parentheses): 4.1
- ratio of metribuzin to DMSO signal (second parentheses): 1.96
- SIGNAL: metribuzin signal of mutant divided by the signal of the SEQ ID No. 17 control: 4.13
- luminescence signal in the DMSO control: 3.84E+06
- luminescence signal observed with 2 mM metribuzin: 7.53E+06

B3: A431P: additional mutation in SEQ ID No: 17 (protein)
chain: MASSRTGAGAGGRVVVFPFPFQGHFNPVMRLARALHARGLAITVFHSGALDPADYPADYRFVPVTVEADPKLLASEDIAAIVTTLNASCDAPFRARLSALLAAEGRDSVRCVFTDVVWNAVLTASSDLGVPALGMMTASAASLRDYMAYRTLIDKGYLPVKEERKEDPVPELPPYLVKDLLRVDTSDLEEFAELLARTVTAARRASGLIFNTFPLIETDTLAEIHKALSVPVFAVAPLNKLVPTATASLHGVVQADRGCLQWLDTQQPGSVLYVSFGSFAAMDPHEFVELAWGLADSKRPFVWVVRPNLIRGFESGALPDGVEDEVRGRGIVVKWAPQEEVLAHPAVGGFLTHNGWNSTVEAISEGVPMVCCPRHGDQFGNMRYVCDVWKVGTELVGEQLERGQVKAAIDRLFGTKEGEEIKERMKEFKIPAAKGIGIGVDVDETASPRTDLTDLVDLIKSF
modifications: Mutated Zea mays Bx9 protein sequence
- metribuzin signal relative to the SEQ ID No:17 control (first parentheses): 2.8
- ratio of metribuzin to DMSO signal (second parentheses): 1.32
- SIGNAL: metribuzin signal of mutant divided by the signal of the SEQ ID No. 17 control: 2.81
- luminescence signal in the DMSO control: 3.87E+06
- luminescence signal observed with 2 mM metribuzin: 5.12E+06

B4: F213W: additional mutation in SEQ ID No: 17 (protein)
chain: MASSRTGAGAGGRVVVFPFPFQGHFNPVMRLARALHARGLAITVFHSGALDPADYPADYRFVPVTVEADPKLLASEDIAAIVTTLNASCDAPFRARLSALLAAEGRDSVRCVFTDVVWNAVLTASSDLGVPALGMMTASAASLRDYMAYRTLIDKGYLPVKEERKEDPVPELPPYLVKDLLRVDTSDLEEFAELLARTVTAARRASGLIFNTWPLIETDTLAEIHKALSVPVFAVAPLNKLVPTATASLHGVVQADRGCLQWLDTQQPGSVLYVSFGSFAAMDPHEFVELAWGLADSKRPFVWVVRPNLIRGFESGALPDGVEDEVRGRGIVVKWAPQEEVLAHPAVGGFLTHNGWNSTVEAISEGVPMVCCPRHGDQFGNMRYVCDVWKVGTELVGEQLERGQVKAAIDRLFGTKEGEEIKERMKEFKIAAAKGIGIGVDVDETASPRTDLTDLVDLIKSF
modifications: Mutated Zea mays Bx9 protein sequence
- metribuzin signal relative to the SEQ ID No:17 control (first parentheses): 4.7
- ratio of metribuzin to DMSO signal (second parentheses): 1.24
- SIGNAL: metribuzin signal of mutant divided by the signal of the SEQ ID No. 17 control: 4.75
- luminescence signal in the DMSO control: 6.96E+06
- luminescence signal observed with 2 mM metribuzin: 8.66E+06

B5: I430P: additional mutation in SEQ ID No: 17 (protein)
chain: MASSRTGAGAGGRVVVFPFPFQGHFNPVMRLARALHARGLAITVFHSGALDPADYPADYRFVPVTVEADPKLLASEDIAAIVTTLNASCDAPFRARLSALLAAEGRDSVRCVFTDVVWNAVLTASSDLGVPALGMMTASAASLRDYMAYRTLIDKGYLPVKEERKEDPVPELPPYLVKDLLRVDTSDLEEFAELLARTVTAARRASGLIFNTFPLIETDTLAEIHKALSVPVFAVAPLNKLVPTATASLHGVVQADRGCLQWLDTQQPGSVLYVSFGSFAAMDPHEFVELAWGLADSKRPFVWVVRPNLIRGFESGALPDGVEDEVRGRGIVVKWAPQEEVLAHPAVGGFLTHNGWNSTVEAISEGVPMVCCPRHGDQFGNMRYVCDVWKVGTELVGEQLERGQVKAAIDRLFGTKEGEEIKERMKEFKPAAAKGIGIGVDVDETASPRTDLTDLVDLIKSF
modifications: Mutated Zea mays Bx9 protein sequence
- metribuzin signal relative to the SEQ ID No:17 control (first parentheses): 2.8
- ratio of metribuzin to DMSO signal (second parentheses): 1.34
- SIGNAL: metribuzin signal of mutant divided by the signal of the SEQ ID No. 17 control: 2.82
- luminescence signal in the DMSO control: 3.83E+06
- luminescence signal observed with 2 mM metribuzin: 5.15E+06

B6: R424P: additional mutation in SEQ ID No: 17 (protein)
chain: MASSRTGAGAGGRVVVFPFPFQGHFNPVMRLARALHARGLAITVFHSGALDPADYPADYRFVPVTVEADPKLLASEDIAAIVTTLNASCDAPFRARLSALLAAEGRDSVRCVFTDVVWNAVLTASSDLGVPALGMMTASAASLRDYMAYRTLIDKGYLPVKEERKEDPVPELPPYLVKDLLRVDTSDLEEFAELLARTVTAARRASGLIFNTFPLIETDTLAEIHKALSVPVFAVAPLNKLVPTATASLHGVVQADRGCLQWLDTQQPGSVLYVSFGSFAAMDPHEFVELAWGLADSKRPFVWVVRPNLIRGFESGALPDGVEDEVRGRGIVVKWAPQEEVLAHPAVGGFLTHNGWNSTVEAISEGVPMVCCPRHGDQFGNMRYVCDVWKVGTELVGEQLERGQVKAAIDRLFGTKEGEEIKEPMKEFKIAAAKGIGIGVDVDETASPRTDLTDLVDLIKSF
modifications: Mutated Zea mays Bx9 protein sequence
- metribuzin signal relative to the SEQ ID No:17 control (first parentheses): 2.5
- ratio of metribuzin to DMSO signal (second parentheses): 1.14
- SIGNAL: metribuzin signal of mutant divided by the signal of the SEQ ID No. 17 control: 2.51
- luminescence signal in the DMSO control: 4.02E+06
- luminescence signal observed with 2 mM metribuzin: 4.58E+06

B7: K429S: additional mutation in SEQ ID No: 17 (protein)
chain: MASSRTGAGAGGRVVVFPFPFQGHFNPVMRLARALHARGLAITVFHSGALDPADYPADYRFVPVTVEADPKLLASEDIAAIVTTLNASCDAPFRARLSALLAAEGRDSVRCVFTDVVWNAVLTASSDLGVPALGMMTASAASLRDYMAYRTLIDKGYLPVKEERKEDPVPELPPYLVKDLLRVDTSDLEEFAELLARTVTAARRASGLIFNTFPLIETDTLAEIHKALSVPVFAVAPLNKLVPTATASLHGVVQADRGCLQWLDTQQPGSVLYVSFGSFAAMDPHEFVELAWGLADSKRPFVWVVRPNLIRGFESGALPDGVEDEVRGRGIVVKWAPQEEVLAHPAVGGFLTHNGWNSTVEAISEGVPMVCCPRHGDQFGNMRYVCDVWKVGTELVGEQLERGQVKAAIDRLFGTKEGEEIKERMKEFSIAAAKGIGIGVDVDETASPRTDLTDLVDLIKSF
modifications: Mutated Zea mays Bx9 protein sequence
- metribuzin signal relative to the SEQ ID No:17 control (first parentheses): 2.4
- ratio of metribuzin to DMSO signal (second parentheses): 1.30
- SIGNAL: metribuzin signal of mutant divided by the signal of the SEQ ID No. 17 control: 2.38
- luminescence signal in the DMSO control: 3.34E+06
- luminescence signal observed with 2 mM metribuzin: 4.34E+06

— patent US20200270588A1, “GLUCOSYL TRANSFERASE POLYPEPTIDES AND METHODS OF USE” (Syngenta Participations AG, priority 2017, published 2020)
